{
  "source": "patent US7144731B2",
  "about": "“SCF antibody compositions and methods of using the same” (Amgen Inc., priority 1989, dated 2006)",
  "molecules": {"B1": {"name": "G-CSF: human granulocyte colony-stimulating factor (protein, UniProt P09919 31-207, looked up)", "Granulocyte …": "TPLGPASSLPQSFLLKCLEQVRKIQGDGAALQEKLVSECATYKLCHPEELVLLGHSLGIPWAPLSSCPSQALQLAGCLSQLHSGLFLYQGLLQALEGISPELGPTLDTLQLDVADFATTIWQQMEELGMAPALQPTQGAMPAFASAFQRRAGGVLVASHLQSFLEVSYRVLRHLAQP"}},
  "key": {"[1]": {"system": "peripheral blood mononuclear cells of normal donors", "assay": "BFU-E assay, peripheral blood of normal donors", "format": "cell-based", "conditions": "Homo sapiens, PBMC; in the presence of the three concentrations of HuSCF (10, 100, 1000 ng/ml); read-out: IC50 (fifty percent inhibitory concentration) of zidovudine for BFU-E", "description": "Peripheral blood mononuclear cells were isolated from leukopaks and peripheral blood using ficoll-hypaque sedimentation followed by extensive washing with Hank's Balance Salt Solution (HBSS). Blood cells were enumerated and viability ascertained by trypan blue dye exclusion.\nAssays for BFU-E were performed in a standard protocol using normal human bone marrow as the control. Heparinized blood was diluted with an equal volume of HBSS (GIBCO, Grand Island, N.Y.), layered over Ficol-Paque (Pharmacia, Piscataway, N.J.) and centrifuged at 400 g for 30 minutes at room temperature. Light density cells (s.g. <1.077) were collected and washed twice in HBSS. Cells were resuspended in Iscove's Medium with 10% Fetal Bovine Serum (GIBCO, Grand Island, N.Y.) at a concentration of 1×10^7/ml. […] Erythroid burst colonies were scored after 14 days of culture in a humidified atmosphere containing 5% CO2. Each assay was done in duplicate and colonies with >50 cells present on day 14 with hemoglobinization were scored as BFU-E.\nThe 50% inhibitory concentration for zidovudine was calculated by expressing the mean of four determinations of BFU-E for each level of zidovudine and huSCF as a percentage of control (no added zidovudine). […] The 50% inhibitory concentration was calculated by interpolation and the value used as the exponent for the base of 10. […]"}, "[2]": {"biological_target": "T1, SCF receptor (OCIM1 plasma membrane) (Homo sapiens, UniProt P10721)", "T1 construct": "endogenous in cells; host or cells: OCIM1 human erythroleukemic cells, plasma membrane preparation", "assay": "SCF radioreceptor assay", "format": "binding", "conditions": "E. coli derived", "description": "OCIM1 cells, [Papayannopoulou et al., Blood 72:1029–1038 (1988)] are a human erythroleukemic cell line expressing many human SCF receptors per cell. These cells are grown in Iscove's Modified Dulbecco's Medium, 10% FBS, and 1× glutamine and passaged 3 times a week to 1×10^5 cells/ml.\nPreparation of the OCIM1 plasma membrane is as follows with all steps performed on ice.\nFirst, 40 T175 flasks of cells were grown-up in OCIM1 culture medium, for a total of 1.9×10^9 […]. The conditioned medium and 1 mM Phenyl Methyl Sulfonyl Fluoride (PMSF) protease inhibitor, was spun down in 8×250 ml tubes at 1000 rpm for 10 minutes at 4° C. Cells were washed with PBS and repelleted in 4×50 ml centrifuge tubes at 1000 rpm for 10 minutes at 4° C. Cells were resuspended in 20 ml ice cold PBS with glucose sodium pyruvate (Gibco Cat #310-4287). The 20 ml cell solution was put into a pre-pressurized, pre-chilled (4° C.) “cell bomb” designed to lyse the cells. Cells were pressurized at 400–650 PSI for 10 minutes to establish equilibrium. When the pressure is released cell lysis occurs.\nAt this point the cells were checked for the percentage of cell lysis. 90% lysis was common. The cell suspension was resuspended in 80 mls sucrose buffer (0.25M sucrose, 10 mM Tris, 1 mM EDTA in double distilled (dd) H2O, filtered through a 0.45 u filter, pH 7.0) and divided between two 40 ml screwcap tubes. Tubes were spun at 5900 RPM for 10 minutes in a Beckman J2-21 centrifuge, JA-20 rotor at 4° C. The supernatants were saved and spun one more time as above to further remove any unwanted material. Supernatants were saved and distributed equally into 2 nalgene 40 ml centrifuge tubes. These supernatants were centrifuged at 16,000 RPM 4° C. for 30 min. in J2-21 centrifuge, JA-20 rotor. These supernatants were discarded being careful to save pellets. Each pellet was resuspended in sucrose buffer so there were 20 mls per tube in 4×36 ml plastic ultracentrifuge tubes. Using a 20 ml syringe and a large trochar, the solution was carefully underlayered in each tube with ice cold 36% sucrose solution (36.1 g sucrose/100 mls ddH2O), bringing the level of the liquid to within 2 mm of the top of the tube. Without disturbing the interface, each tube was carefully placed into each of […] titanium ultracentrifuge tubes. Tubes were centrifuged at 27,000 RPM, 4° C. for 75 minutes in an ultracentrifuge. These tubes were carefully removed from the rotor and from titanium buckets, placed in a rack with the 36% sucrose interface visible. The membraneous material at the interface was collected with a pasteur pipet and transfered into 2 clean nalgene 40 ml centrifuge tubes. Volume was brought up to 40 mls with ice cold sucrose buffer. Tubes were balanced and centrifuged as before at 5900 RPM in J2-21 centrifuge. […]"}, "UT-7 cells": {"system": "UT-7 cells", "assay": "UT-7 ^3H-thymidine uptake assay", "format": "cell-based, human", "conditions": "E. coli derived", "description": "UT-7 cells are a human megakaryocyte, huGM-CSF responsive cell line obtained from John Adamson, New York Blood Center, New York, N.Y. UT-7 cells were cultured in Iscove's Modified Dulbecco's Medium, 10% FBS, 1× glutamine, 5 \\g/ml huGM-CSF. Cells are passaged twice a week at 1×10^5 cells/ml.\nCells were washed twice in phosphate buffered saline (PBS) and resuspended in RPMI medium with 4% FBS and glutamine penicillin streptomycin (GPS) (Irvine Scientific Cat No. 9316 used at 1% volume per volume) at 4×10^4 cells/ml before use. Human SCF along with specific samples were added to 4000 cells/well in 96 well plates and were cultured for 72 hrs. 0.5 uCi/well of ^3H-Thymidine was then added to each plate, plates were harvested and counted 4 hours later."}, "normal baboons": {"system": "normal baboons", "assay": "In vivo activity in normal primates"}, "[3]": {"system": "bone marrow from patients with DBA", "assay": "BFU-E culture of Diamond-Blackfan anemia marrow", "format": "cell-based, human", "text": "(§1) Another bone marrow failure disorder which is responsive to SCF is Diamond-Blackfan anemia (DBA) or congenital pure red cell aplasia. This congenital abnormality results in a selective defect in the production of red blood cells and often results in chronic transfusion dependency. […] This pattern of response reflects an intrinsic defect in the receptor for SCF (c-kit) on the progenitor cell. In either case (abnormal production of SCF by the microenvironment or decreased stimulation of the hematopoietic progenitor by SCF) SCF overcomes the block to hematopoiesis which characterizes bone marrow failure syndromes such as DBA."}, "control marrow": {"system": "control marrow", "assay": "BFU-E culture of control marrow", "format": "cell-based, human", "conditions": "with EPO", "text": "as §1"}, "[4]": {"system": "dog with cyclic neutropenia", "assay": "Canine cyclic neutropenia", "format": "in vivo", "conditions": "rcanineSCF 100 mg/kg/day s.c. over several weeks", "description": "Cyclic neutropenia, in particular, is a defect in the regulation of stem cell division since other lineages (e.g., platelet, erythrocyte and monocyte) are also effected. […] A typical dog with cyclic neutropenia was treated with rcanineSCF (recombinant canine SCF) at […] subcutaneously over several weeks. […] Thus, SCF is useful in treating a variety of bone marrow failure syndromes, either alone or in combination with other hematopoietic growth factors."}, "Lewis rats": {"system": "Lewis rats", "assay": "SCF and G-CSF in Lewis rats", "format": "in vivo, rat", "description": "Quantitative peripheral blood and bone marrow differentials were performed at various timepoints as previously described [Hulse, Acta Haematol. […] J. Physiol. […] Histologic examination of the spleen was performed with Bouin's-fixed paraffin-embedded sections stained with hematoxylin-and-eosin as well as by the Giemsa method. The numbers of normoblasts, megakaryocytes, and mast cells per 400× or 1000× high power field (HPF) in the spleen was quantitated by counting the number of each cell type in randomly selected fields of the red pulp. Increases in circulating numbers of neutrophils over extended time periods were when so stated calculated by planimetry as previously described. […] Data is expressed as the mean plus-or-minus one standard deviation and statistical analysis is by the unpaired t-test."}, "human bone marrow": {"system": "human bone marrow", "assay": "Human bone marrow colony assay", "format": "cell-based", "conditions": "agar colony assay, factors alone or combined", "description": "The cDNA of human SCF corresponding to amino acids 1–162 obtained by PCR reactions outlined in Example 3D, was expressed in COS-1 cells as described for the rat SCF in Example 4. COS-1 supernatants were assayed on human bone marrow as well as in the murine HPP-CFC and MC/9 assays. […] The culture conditions of the assay were as follows: human bone marrow from healthy volunteers was centrifuged over Ficoll-Hypaque gradients (Pharmacia) and cultured in 2.1% methyl cellulose, 30% fetal calf serum, 6×10^−5 M 2-mercaptoethanol, 2 mM glutamine, ISCOVE'S medium (GIBCO), 20 U/ml EPO, and 1×10^5 cells/ml for 14 days in a humidified atmosphere containing 7% O2, 10% CO2, and 83% N2. Only those colonies of 0.2 mm in size or larger are indicated.\nRecombinant human SCF was tested in agar colony assays on human bone marrow in combination with other growth factors as described above."}, "normal human bone marrow": {"system": "normal human bone marrow", "assay": "Human CFU-GM assay", "format": "cell-based", "conditions": "average of triplicate cultures; SCF = COS-1 supernatant 4 days after transfection"}, "[5]": {"conditions": "6 hours after a single injection"}},
  "data": [
    {"molecule": "Cc1cn([C@H]2C[C@H](N=[N+]=[N-])[C@@H](CO)O2)c(=O)[nH]c1=O", "note": "[zidovudine]", "values": [
      {"measurement": "IC50", "setting": "[1]", "value": "2.65 to 1380", "unit": "µM"}
    ]},
    {"molecule": "Human SCF^1-165: recombinant human [Met^−1]SCF^1-165 expressed in E. coli", "values": [
      {"measurement": "competition with binding of human [^125I][Met^−1]SCF^1-164", "setting": "[2]", "value": "compete equally well"},
      {"measurement": "stimulation of UT-7 proliferation, comparison", "setting": "UT-7 cells", "value": "equally active"},
      {"measurement": "in vivo biological activity in primates compared with human SCF^1-164", "setting": "normal baboons", "value": "same in vivo biological activity"}
    ]},
    {"molecule": "SCF: stem cell factor added to DBA and control marrow cultures; form not specified", "values": [
      {"measurement": "increase in the frequency of BFU-E", "setting": "[3]; majority of patients, ≤10 ng/ml SCF, with EPO", "value": "approximately 3 fold"},
      {"measurement": "SCF concentration giving an increase in the frequency of BFU-E", "setting": "[3]; other group of patients with DBA", "value": "greater than or equal to 50 ng/ml"},
      {"measurement": "increase in frequency of BFU-E", "setting": "control marrow", "value": 1.5, "unit": "fold"}
    ]},
    {"molecule": "B1", "values": [
      {"measurement": "neutrophil cycling", "setting": "[4]", "value": "increases the frequency and amplitude of neutrophil cycling, but does not eliminate it"},
      {"measurement": "time of peak neutrophilia after a single injection", "setting": "Lewis rats; 25 ug/rat i.v.", "value": 12, "unit": "h"},
      {"measurement": "decrease in mature marrow neutrophils vs carrier control", "setting": "Lewis rats; [5]", "value": 44, "unit": "%"},
      {"measurement": "mature marrow neutrophils", "setting": "Lewis rats; [5]", "value": "5.55±0.5 ×10^6 PMN/humerus"},
      {"measurement": "myeloblasts and promyelocytes in marrow vs carrier controls", "setting": "Lewis rats; 6 hours after single injection", "value": "significant increase in myeloblasts and promyelocytes"},
      {"measurement": "mature neutrophils in bone marrow", "setting": "Lewis rats; 24 hours after daily injection for one week", "value": "28.5±2.1 ×10^6 PMN/humerus"},
      {"measurement": "circulating neutrophils", "setting": "Lewis rats; daily 25 ug/rat for one week, 24 hours after the last injection", "value": "10.6±3.6 ×10^3 PMN/mm^3"},
      {"measurement": "morbidity and thrombocytopenia", "setting": "Lewis rats; daily for one week", "value": "None of the rats"},
      {"measurement": "circulating neutrophils", "setting": "Lewis rats; daily for one week, 12 hours after the last (seventh) injection", "value": "25.3±0.3 ×10^3 PMN/mm^3"},
      {"measurement": "number of megakaryocytes in the spleen", "setting": "Lewis rats; per 400× HPF, daily for one week", "value": "2.0±1.1"},
      {"measurement": "number of normoblasts in the spleen", "setting": "Lewis rats; per 1,000× HPF, daily for one week", "value": "0±0"},
      {"measurement": "Colony #/10^5 cells (14 Days)", "setting": "human bone marrow", "value": "32 ± 3"},
      {"measurement": "Colony #/100,000 cells (±SEM)", "setting": "normal human bone marrow", "value": "24 ± 1"}
    ]}
  ]
}
